Experimental data: EP4711384A1 (WIO Bioscience Co., Ltd., dated 2026)
Where “and” joins values, the source holds several entries; their conditions need not be identical. Identical values can stand only once. Like-named read-outs stand apart in the source and are kept apart here. Values belong to the molecule of their own block, whether it stands above or below them.

Assays:
[1] = target: human IL-18R1 and IL-18RAP on IL-18 Reporter HEK 293 Cells (human) (UniProt Q13478); assay: cell-based or functional assay
[2] = target: human IL-18R1 and IL-18RAP on IL-18 Reporter HEK 293 Cells (human) (UniProt Q13478); assay: cell-based or functional assay; remark: listed apart in the source
[3] = target: T1, human IL-18RAP ECD-His (human) (UniProt O95256); assay: phage ELISA, 4-fold dilution
T1 sequence: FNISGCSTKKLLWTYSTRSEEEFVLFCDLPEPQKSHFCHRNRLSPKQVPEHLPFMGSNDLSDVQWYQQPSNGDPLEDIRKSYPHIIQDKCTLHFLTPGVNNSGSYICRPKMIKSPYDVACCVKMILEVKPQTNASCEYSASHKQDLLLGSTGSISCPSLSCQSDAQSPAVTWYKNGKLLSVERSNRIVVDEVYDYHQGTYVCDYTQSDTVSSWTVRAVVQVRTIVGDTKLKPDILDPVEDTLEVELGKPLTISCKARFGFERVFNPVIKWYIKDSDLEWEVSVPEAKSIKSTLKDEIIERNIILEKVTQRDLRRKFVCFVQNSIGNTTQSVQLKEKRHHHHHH

[4] = target: T2, human IL-18R1 ECD-His (human) (UniProt Q13478); assay: phage ELISA, 4-fold dilution
T2 sequence: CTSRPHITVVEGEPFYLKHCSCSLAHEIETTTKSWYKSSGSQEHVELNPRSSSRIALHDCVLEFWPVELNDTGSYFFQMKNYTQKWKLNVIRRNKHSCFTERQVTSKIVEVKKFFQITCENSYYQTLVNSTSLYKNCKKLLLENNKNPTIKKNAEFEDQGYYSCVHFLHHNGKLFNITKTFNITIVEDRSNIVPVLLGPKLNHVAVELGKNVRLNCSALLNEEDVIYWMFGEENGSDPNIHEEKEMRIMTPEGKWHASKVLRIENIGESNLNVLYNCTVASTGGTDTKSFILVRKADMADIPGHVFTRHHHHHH

[5] = target: T1, human IL-18RAP ECD-His (human); assay: phage ELISA, 16-fold dilution
[6] = target: T2, human IL-18R1 ECD-His (human); assay: phage ELISA, 16-fold dilution
[7] = target: T2, human IL-18R1 ECD-His (human); assay: sandwich ELISA, IL-18RAP ECD-hFc detection
[8] = target: T3, human IL-18R1 and IL-18RAP on IL-18 Reporter HEK 293 Cells (human, UniProt Q13478 19-541; O95256 20-599); assay: cell-based or functional assay
T3 sequence (looked up) 1: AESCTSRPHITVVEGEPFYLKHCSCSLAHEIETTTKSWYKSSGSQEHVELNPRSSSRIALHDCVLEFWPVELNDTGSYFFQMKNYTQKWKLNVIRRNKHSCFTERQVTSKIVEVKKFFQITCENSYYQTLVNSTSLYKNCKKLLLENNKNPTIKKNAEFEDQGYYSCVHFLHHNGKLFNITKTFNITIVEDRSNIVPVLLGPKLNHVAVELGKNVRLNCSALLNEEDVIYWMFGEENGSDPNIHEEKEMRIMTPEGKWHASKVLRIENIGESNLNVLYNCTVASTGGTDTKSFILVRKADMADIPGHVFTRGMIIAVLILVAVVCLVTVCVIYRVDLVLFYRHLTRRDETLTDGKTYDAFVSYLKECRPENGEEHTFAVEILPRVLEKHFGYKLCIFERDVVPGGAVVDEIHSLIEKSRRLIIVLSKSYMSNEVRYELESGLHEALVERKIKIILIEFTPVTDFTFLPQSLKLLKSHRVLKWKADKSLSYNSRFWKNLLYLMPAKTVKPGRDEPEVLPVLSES
T3 sequence (looked up) 2: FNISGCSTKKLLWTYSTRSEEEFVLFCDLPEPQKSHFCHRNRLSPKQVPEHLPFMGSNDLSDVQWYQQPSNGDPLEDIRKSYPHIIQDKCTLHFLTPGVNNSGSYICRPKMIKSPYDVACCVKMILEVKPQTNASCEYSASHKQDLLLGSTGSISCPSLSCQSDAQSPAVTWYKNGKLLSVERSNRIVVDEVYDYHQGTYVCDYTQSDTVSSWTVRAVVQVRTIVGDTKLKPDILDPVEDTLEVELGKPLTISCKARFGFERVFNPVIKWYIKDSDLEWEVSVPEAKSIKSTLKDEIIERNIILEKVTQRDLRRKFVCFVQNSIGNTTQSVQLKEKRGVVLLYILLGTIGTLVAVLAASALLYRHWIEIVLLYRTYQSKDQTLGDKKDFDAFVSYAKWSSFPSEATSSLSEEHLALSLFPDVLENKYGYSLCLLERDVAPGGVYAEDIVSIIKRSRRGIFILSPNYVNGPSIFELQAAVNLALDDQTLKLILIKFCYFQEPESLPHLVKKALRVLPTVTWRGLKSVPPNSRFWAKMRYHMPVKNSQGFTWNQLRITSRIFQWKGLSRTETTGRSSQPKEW

[9] = target: T3, human IL-18R1 and IL-18RAP on IL-18 …; assay: cell-based or functional assay; remark: listed apart in the source

EC50 [1]: 0.117 ng/mL | EC50, SEAP reporter [1]: 0.107 ng/mL | Top630nm [1]: 2.44 | EC50 [2]: 0.121 ng/mL | Top630nm [2]: 2.27
Molecule: recombinant human IL-18 (from UniProt Q14116 37-193) (ligand)

ELISA OD [3]: 0.06 | ELISA OD [4]: 0.059 | ELISA OD [5]: 0.068 | ELISA OD [6]: 0.055
Molecule: NC

ELISA OD [4]: 2.71 | ELISA OD [6]: 2.64
B1: R1-A12 (VHH)
VHH: QVQLQESGGGPVQAGGSLRLSCSASTTAYDNACMGWFRQAPGKEREGVASIHLRDRTYYADSVKGRFTLSRDGASKTLYLQMNSLKPEDSGTYYCASSNICNGLNLQGNTYWGQGTQVTVSS

ELISA OD [7]: 2.14 and 2.26 | SEAP reporter OD, supernatant 5X [8]: 2.13 | SEAP reporter OD, supernatant 25X [8]: 1.92 | EC50 [9]: 1.87 ng/mL
B2: Wio-02-01 (R1-A12-GGGGS-Rap-A10) (bispecific antibody)
chain: QVQLQESGGGPVQAGGSLRLSCSASTTAYDNACMGWFRQAPGKEREGVASIHLRDRTYYADSVKGRFTLSRDGASKTLYLQMNSLKPEDSGTYYCASSNICNGLNLQGNTYWGQGTQVTVSSGGGGSQVQLQESGGGLVQAGGSLKLSCAASGYTYGPYCMGWFRQFPGKEREGVAAVGGDGRTWYGNSVKGRFTISQDNAKKTLYLQINALKPEDTAMYYCAADFDRTVCSDDIYDYTYRGQGTQVTVSS

ELISA OD [4]: 2.76 | ELISA OD [6]: 2.71
B3: R1-E12 (VHH)
VHH: QVQLQESGGGSVQAGGSLRLSCVASGTTMSMNYMAWFRQAPGKEREGVASIFRSTHYADSVKGRFTIAEDSAKNTVYLQMNSLKPEDTAVYYCAAGRTKPYLTPLAESQYNYWGQGIQVTVSS

ELISA OD [4]: 2.04 | ELISA OD [6]: 1.63
B4: R1-F9 (VHH)
VHH: QVQLQESGGGSVQAGETLRLSCTASGFTVHDMGWYRQAPGNECELVSTISSDGSTYYADSVKGRFTISQDNAKNTVYLQMNSLKPEDTAVYYCAADHFTGLQLAECKADFGYWGQGTQVTVSS

ELISA OD [3]: 1.85 | ELISA OD [5]: 1.58
B5: Rap-C10 (VHH)
VHH: QVQLQESGGGSVQPGGSLRLSCAASGFTYIPAYMGWFRQAPGKERERVASISSTDGSTTYADSVKGRFTVSQDTAKNTLYLQMNSLKPEDTAMYYCAAYQFGAFRVWGQGTQVTVSS

ELISA OD [7]: 1.81 and 1.82 | SEAP reporter OD, supernatant 5X [8]: 1.91 | SEAP reporter OD, supernatant 25X [8]: 1.87
B6: Wio-02-09 (R1-C10-GGGGS-Rap-F11) (bispecific antibody)
chain: QVQLQESGGGSVQAGETLRLSCTASGSTFDEYDMGWYRQAPGNKCELVSTISTIDGSTYYADSVKGRFTISQDNTKNTVYLQMNSLKPEDTGVYYCEADDRGTWDRGGCWGQGTQVTVSSGGGGSQVQLQESGGGSVQPGGSLRLSCAASGFTYIPAYMGWFRQAPGKERERVASIKTDGSTTYADSVNGRFTIAQDTAKNTLYLQMDSLKPEDTAMYYCAAYQFGAFRVWGQGTQVTVSS

ELISA OD [4]: 1 | ELISA OD [6]: 0.819
B7: R1-C7 (VHH)
VHH: QVQLQESGGGPVQAEGSLRLSCTASGNLYRDPCMGWFRQAPGKDREGVAAMNTGADSTFYARSVKGRFTISHDNAKNTLYLQMNSVKPEDTAMYYCAASRYCTERTWTWRYDYDYWGQGTQVTVSS

ELISA OD [4]: 1.33 | ELISA OD [6]: 0.977
B8: R1-C10 (VHH)
VHH: QVQLQESGGGSVQAGETLRLSCTASGSTFDEYDMGWYRQAPGNKCELVSTISTIDGSTYYADSVKGRFTISQDNTKNTVYLQMNSLKPEDTGVYYCEADDRGTWDRGGCWGQGTQVTVSS

ELISA OD [3]: 1.83 | ELISA OD [5]: 1.57
B9: Rap-A10 (VHH)
VHH: QVQLQESGGGLVQAGGSLKLSCAASGYTYGPYCMGWFRQFPGKEREGVAAVGGDGRTWYGNSVKGRFTISQDNAKKTLYLQINALKPEDTAMYYCAADFDRTVCSDDIYDYTYRGQGTQVTVSS

ELISA OD [7]: 2.03 and 2.15 | SEAP reporter OD, supernatant 5X [8]: 2.85 | SEAP reporter OD, supernatant 25X [8]: 2.17
B10: Wio-02-11 (R1-C10-GGGGS-Rap-C10) (bispecific antibody)
chain: QVQLQESGGGSVQAGETLRLSCTASGSTFDEYDMGWYRQAPGNKCELVSTISTIDGSTYYADSVKGRFTISQDNTKNTVYLQMNSLKPEDTGVYYCEADDRGTWDRGGCWGQGTQVTVSSGGGGSQVQLQESGGGSVQPGGSLRLSCAASGFTYIPAYMGWFRQAPGKERERVASISSTDGSTTYADSVKGRFTVSQDTAKNTLYLQMNSLKPEDTAMYYCAAYQFGAFRVWGQGTQVTVSS

ELISA OD [3]: 2 | ELISA OD [5]: 1.58
B11: Rap-F11 (VHH)
VHH: QVQLQESGGGSVQPGGSLRLSCAASGFTYIPAYMGWFRQAPGKERERVASIKTDGSTTYADSVNGRFTIAQDTAKNTLYLQMDSLKPEDTAMYYCAAYQFGAFRVWGQGTQVTVSS
